Measured values as given in patent US20210060185A1.

Biological target: dGvpC (Ana GvpC with SG-… at the C-terminus, encoded in the acoustic sensor gene for ClpXP) (Anabaena flos-aquae) (UniProt P09413)
Assay: cell-based or functional assay

dGvpC (Ana GvpC with SG-… at the C-terminus, encoded in the acoustic sensor gene for ClpXP) (Anabaena flos-aquae), sequence (P09413 1-193, tags or fused parts left off): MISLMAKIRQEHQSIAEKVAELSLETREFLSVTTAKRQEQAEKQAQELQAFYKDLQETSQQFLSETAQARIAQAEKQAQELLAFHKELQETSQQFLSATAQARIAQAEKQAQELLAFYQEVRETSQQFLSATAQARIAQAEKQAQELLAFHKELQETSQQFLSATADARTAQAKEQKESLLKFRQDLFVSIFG

ClpXP of E. coli Nissle 1917 (native, or ClpX and ClpP cloned from the Nissle genome under the pBAD promoter) (from UniProt P0A6H1 2-424; P0A6G7 15-207) (enzyme)
hydrostatic collapse pressure midpoint of intact WT Nissle cells, ASGClpXP against ARGWT: 160 kPa | hydrostatic collapse pressure midpoint of ΔClpXP Nissle cells with against without ClpXP induction: 160 kPa | nonlinear ultrasound contrast of live WT Nissle cells, ASGClpXP against ARGWT: 13 dB | nonlinear ultrasound contrast of ΔClpXP Nissle cells with against without ClpXP induction: 6.7 dB
